Experimental data taken from US20230020546A1, “APPLICATION OF PROGESTIN IN PREPARATION OF DRUG INHIBITING CYTOKINE STORM” (SHENZHEN EVERGREEN THERAPEUTICS CO., LTD., priority 2020, published 2023).

How the values were obtained:
hu-SCID mice [1] = assay: Rectal temperature after antibody injection in hu-SCID mice; format: in vivo
[2] = tested on: circulating cytokines in hu-SCID mice; assay: Circulating cytokines in plasma of hu-SCID mice after OKT3 injection (multiplex immunoassay); format: in vivo; conditions: for Inhibition of OKT3-induced immune (cytokine) storm in an animal model: hu-SCID mice, overall conclusion; for IFN-γ Concentration / IL-1β Concentration / IL-2 Concentration / IL-4 Concentration / IL-5 Concentration / IL-6 Concentration / IL-10 Concentration / TNF-α Concentration: OKT3 10 μg IP alone
Procedure: […] A multiplex immunoassay system was then applied to the collected heparinized plasma to analyze cytokines. Cytokines measured included human IL-1β, IL-2, IL-4, IL-5, IL-6, IL-10, IL-12 (p70), IL-13, IL-17, IFN-γand TNF-α. […] The activation markers thereof were then analyzed by flow cytometry. Human peripheral blood mononuclear cells in the mouse spleen were blocked with 2.4G2 and then stained with fluorescently labeled CD69, CD25, CD45 and CD3.
After antibody injection, in order to determine if a cytokine storm was induced, we detected cytokines (human IL-1β, IL-2, IL-4, IL-5, IL-6, IL-10, IL-12 (p70), IL-13, IL17, IFN-γ and TNF-α) in the plasma of the hu-SCID mice.
On days 8 and 9 after intravenous injection of PBMCs in humanized mice (48 hours and 24 hours before antibody injection), a candidate drug PR2005 (5 mg/kg) was injected intraperitoneally to the animals. […] The results are detailed in Tables 1-4.

hu-SCID mice [3] = conditions: mouse, in vivo, ip
Procedure: (§1) Each humanized mouse for the test was first intravenously injected with 2×10^7 PBMCs. After 10 days, each mouse was injected with OKT3 or control IgG (2 μg or 10 μg, IV or IP).
(§2) Clinical score measurement: as recommended by the Canadian Council for Animal Care (www.ccac.ca/en /standards/guidelines), we conducted preliminary studies to determine the most appropriate clinical symptoms and scoring criteria. […] Score: 0=normal activity; 1=normal activity, hairs upright, and tiptoe gait; 2=arched back, decreased activity, but there are still activities; 3=too few activities, but there are still activities when prompted; 4=dying. Mice with a clinical score of 4 were sacrificed.

hu-SCID mice [4] = assay: Clinical symptoms / clinical score after antibody injection in hu-SCID mice
Procedure: as §1, §2

## CCCCCC(=O)O[C@]1(C(C)=O)CC[C@H]2[C@@H]3CCC4=CC(=O)CC[C@]4(C)[C@H]3CC[C@@]21C [PR2005, hydroxyprogesterone caproate, reference compound]
hu-SCID mice [1]; PR2005 5 mg/kg IP, 48 hours and 24 hours before antibody injection
  Body temperature change after receiving OKT3: no significant changes in body temperature
[2]; PR2005 5 mg/kg IP before OKT3
  Concentration of cytokines in the blood vs animals using OKT3 alone: substantially lower
[2]
  Inhibition of OKT3-induced immune (cytokine) storm in an animal model: can inhibit the OKT3-induced immune storm
[2]; listed as hydroxyprogesterone caproate
  Inhibition of OKT3-induced immune (cytokine) storm in an animal model: can inhibit the cytokine storm

## OKT3: muromonab-CD3 antibody used to induce the cytokine storm in hu-SCID mice
hu-SCID mice [1]; OKT3 2 μg IP, 0 h
  Rectal temperature: 37.7 °C
hu-SCID mice [1]; OKT3 2 μg IP, 1 h
  Rectal temperature: 35.6 °C
hu-SCID mice [1]; OKT3 2 μg IP, 2 h
  Rectal temperature: 34.8 °C
hu-SCID mice [1]; OKT3 2 μg IP, 5 h
  Rectal temperature: 35.4 °C
hu-SCID mice [1]; OKT3 2 μg IP, similar to control human IgG
  Rectal temperature change: moderate changes
hu-SCID mice [1]; OKT3 2 μg IV, 0 h
  Rectal temperature: 37.7 °C
hu-SCID mice [1]; OKT3 2 μg IV, 1 h
  Rectal temperature: 31.7 °C
hu-SCID mice [1]; OKT3 2 μg IV, 2 h
  Rectal temperature: 33.8 °C
hu-SCID mice [1]; OKT3 2 μg IV, 5 h
  Rectal temperature: 34.9 °C
hu-SCID mice [1]; OKT3 2 μg IV, at 1 h, partial recovery after 5 h
  Transient hypothermia (rectal temperature): about 32 °C
hu-SCID mice [1]; OKT3 10 μg IP or IV, within 1 h
  Rectal temperature decrease (from 37° C.): ≤ 32 °C
hu-SCID mice [1]; OKT3 10 μg IP, 0 h
  Rectal temperature: 37.7 °C
hu-SCID mice [1]; OKT3 10 μg IP, 1 h
  Rectal temperature: 31.7 °C
hu-SCID mice [1]; OKT3 10 μg IP, 2 h
  Rectal temperature: 31.1 °C
hu-SCID mice [1]; OKT3 10 μg IP, 5 h
  Rectal temperature: 30.6 °C
hu-SCID mice [1]; OKT3 10 μg IV, 0 h
  Rectal temperature: 37.7 °C
hu-SCID mice [1]; OKT3 10 μg IV, 1 h
  Rectal temperature: 31.9 °C
[2]; OKT3 2 μg IP or IV, any time point
  Induced cytokines: rarely detected
[2]; OKT3 10 μg IP
  Time of TNF-α peak: 1 h
[2]; 1 h
  IFN-γ Concentration: 7015 pg/mL
  IL-1β Concentration: 44.0 pg/mL
  IL-2 Concentration: 39.0 pg/mL
  IL-4 Concentration: 61 pg/mL
  IL-5 Concentration: 72 pg/mL
  IL-6 Concentration: 96 pg/mL
  IL-10 Concentration: 3319 pg/mL
  TNF-α Concentration: 1409 pg/mL
[2]; 2 h
  IFN-γ Concentration: 23574 pg/mL
  IL-1β Concentration: 77.5 pg/mL
  IL-2 Concentration: 75.9 pg/mL
  IL-4 Concentration: 182 pg/mL
  IL-5 Concentration: 98 pg/mL
  IL-6 Concentration: 160 pg/mL
  IL-10 Concentration: 11001 pg/mL
  TNF-α Concentration: 1127 pg/mL
[2]; 5 h
  IFN-γ Concentration: 25783 pg/mL
  IL-1β Concentration: 97.4 pg/mL
  IL-2 Concentration: 89.4 pg/mL
  IL-4 Concentration: 259 pg/mL
  IL-5 Concentration: 158 pg/mL
  IL-6 Concentration: 252 pg/mL
  IL-10 Concentration: 20052 pg/mL
  TNF-α Concentration: 655 pg/mL
[2]; OKT3 10 μg IP, concentrations gradually increased within 5 h
  Induction of cytokines (IL-1β, IL-2, IL-4, IL-5, IL-6, IL-10, IFN-γ): may induce production of multiple cytokines
hu-SCID mice [3]
  Mice dying and sacrificed: one of 5
hu-SCID mice [4]; OKT3 2 μg IP
  Symptom observation: unaffected
hu-SCID mice [4]; OKT3 2 μg IV
  Mice needing to be euthanized: Two of four
hu-SCID mice [4]; OKT3 2 μg IV, within 1 h
  Response (symptoms): moderate to severe
hu-SCID mice [4]; OKT3 10 μg IP
  Clinical score: moderate
hu-SCID mice [4]; OKT3 10 μg IV
  Response (symptoms): severe
hu-SCID mice [4]; OKT3 10 μg IV, at 1 h
  Mice sacrificed: all mice were sacrificed
